Data from patent US11491212.

B1: FIXa-R338E/R403E/E410N (mature FIX numbering) (protein)
chain 1: not shown
chain 2: not shown
B2: FIXa-D203N/F205T/R338E/R403E (mature FIX numbering) (protein)
chain 1: not shown
chain 2: not shown
B3: FIXa-Y155F/R318Y/R338E/R403E (mature FIX numbering) (protein)
chain 1: not shown
chain 2: not shown
B4: FIXa-D203N/F205T/K228N (mature FIX numbering) (protein)
chain 1: not shown
chain 2: not shown
B5: FIXa-D203N/F205T/R318Y (mature FIX numbering) (protein)
chain 1: not shown
chain 2: not shown
B6: FIXa-D203N/F205T/R338E (mature FIX numbering) (protein)
chain 1: not shown
chain 2: not shown
B7: FIXa-K228N/K247N/N249S/R318Y/T343R/R403E/E410N (protein)
chain 1: not shown
chain 2: not shown
B8: FIXa-R318Y/R338E/R403E (mature FIX numbering) (protein)
chain 1: not shown
chain 2: not shown
B9: FIXa-Y155F/R338E/R403E/E410N (mature FIX numbering) (protein)
chain 1: not shown
chain 2: not shown
B10: FIXa-K293E/R338E/R403E (mature FIX numbering) (protein)
chain 1: not shown
chain 2: not shown
B11: FIXa-K293A/R338A/R403A (mature FIX numbering) (protein)
chain 1: not shown
chain 2: not shown
B12: FIXa-D203N/F205T/R338A (mature FIX numbering) (protein)
chain 1: not shown
chain 2: not shown
B13: FIXa-K228N/247N/N249S/R318Y/R338E/T343R/E410N (protein)
chain 1: not shown
chain 2: not shown
B14: FIXa-D203N/F205T/E410N (mature FIX numbering) (protein)
chain 1: not shown
chain 2: not shown

Biological target: Factor X (FX), P00742
Sequence (P00742 whole entry, looked up): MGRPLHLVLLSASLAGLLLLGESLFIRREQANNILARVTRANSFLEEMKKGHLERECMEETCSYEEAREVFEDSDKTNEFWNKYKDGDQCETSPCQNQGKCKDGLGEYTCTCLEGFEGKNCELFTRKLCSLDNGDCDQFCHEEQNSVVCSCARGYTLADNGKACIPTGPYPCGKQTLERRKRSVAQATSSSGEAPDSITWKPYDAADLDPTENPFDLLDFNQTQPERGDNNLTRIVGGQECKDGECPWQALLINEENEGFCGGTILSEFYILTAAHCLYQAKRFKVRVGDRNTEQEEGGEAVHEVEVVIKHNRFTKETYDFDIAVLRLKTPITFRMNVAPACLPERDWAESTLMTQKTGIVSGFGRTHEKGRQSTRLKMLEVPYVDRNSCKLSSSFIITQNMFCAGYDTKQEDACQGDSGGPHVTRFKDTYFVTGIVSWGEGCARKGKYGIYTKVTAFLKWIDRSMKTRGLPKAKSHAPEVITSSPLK

Protein	% of WT kcat/KM [%]	KM (nM), FX activation by FIXa in the Xase complex (FVIIIa, PC/PS vesicles, Ca2+), indirect fluorogenic assay with Spectrafluor FXa [nM]	kcat/KM [M⁻¹ s⁻¹]
B1	411	–	–
B2	41	–	–
B3	189	–	–
B4	30	–	–
B5	44	–	–
B6	228	–	–
B7	–	125	–
B8	134	–	–
B9	401	–	1.8e+08
B10	36	–	–
B11	53	–	–
B12	135	–	–
B13	–	38.1	–
B14	91	–	–
